For eight sequences, protein production results are on record in a protein production outcome set (Wang et al. 2014).

This data set in a line: label from the status in PepcDB records.
Consider “MTFRESVPFIVAIAATIPGILLRVVHPDISPLLMASLTGLAILGASFMLMWACEVAQMDIPQTLALAVVALIAVLPEYAVDMYFTWMAGQHPESNYAHYAIANMTGANRLLIGIGWSAIAILYALRFRKAVQLEEERRSELLFLALATAYALVIPLKGTLEWYDGVILVSLYVWYIRIASKRPCTDCEVEGPAEALAHLPRNTRRLTTLGLFLFAAGVILCDAELFSESLVASGKVLGINEFLLVQWLAPIASEAPEFIVAIMFATRGQASLALGSLISSKLNQWTLLVGMIPGVFAVSSGSINPPMPMDDHQMHELLLTAAQSLFAVVLLARMRLGLRGALVLLALFIGQFAAPLYEPYVENLLGIPHMPDGLHIVYSGLYIALALGMMLYRPGRLLQLREGLKV”, for which the protein production result is on record as “failed”.
Regarding “MTMADETIILNVLGQYTRAHDRRDPDAMAALFAPEATIEIVDAVGGASRSISRLEGRDAIRVAVRQMMAPHGYRAWSQNVVNAPIIVIEGDHAVLDAQFMVFSILAAEVPDGGWPTGTFGAQGRIVPIEAGQYRLTLRTVADGWVISAMRIEHRLPMAFG”, the protein production entry is “not failed”.
The entry for “MVPQTGRAARATRESGRQTRDALFTAATELFLEHGEGVPITQICAAAGAHPNQVTYYYGSKERLFVEVACAAVLRAGKRAEDDAATAETVGDYTEKLVGSLLGPGAPSVELFTSAMLMTGRRSELRDLITDTLRTLHSSGEVALIRTLMRTGWQLRAGIDVESKAFWSAIFGLVIQKTATGESFGYSLEEAVAVIFANLQIPETVRNTSID” is “not failed”; for “MGSSHHHHHHSSGENLYFQGHMIYPYKGKTPQIAASAFIADYVTITGDVVIGEETSIWFNTVIRGDVAPTVIGNRVNIQDNSILHQSPNNPLIIEDGVTVGHQVILHSAIVRKNALIGMGSIILDRAEIGEGAFIGAGSLVPPGKKIPPNTLALGRPAKVVRELTEDDIREMERIRREYVEKGQYYKALQQQRTSCADKKELP” it is “not failed”.
The entry for “MMTALATVLEVQEDIVVVGCQQKTSCNHCSSKDSCGTGIVSKALPGKVHHWAFHTEKKLSVGQLVEIGLPEKNLLQSAAIVYLTPLLFLLFGALLSEWFLSPMIGLGELTTIVVSVLFALGGYQLAKRLSHHIEQKTEQQVSLLRVLGEPVSDTNLGNAAR” is “failed”.
The entry for “MNTKKESALSFPSAGIESFGERLKELMGDESLRAFANAIDTSEGGVRKWFTQSTMPSFDKMVRIARRYNVNLEWLCTGEGPKFPGETAAYESVICKTEEFSEEYALIDGYHTQVSTGHGAQWDNERVRRKLAFRSKWLRYRGLQPENLRVVFAKGDSMEPTIHSGDSILVDITDANLSDGSIFVLRIGDDLFAKRVQVHIDGSITIISDNKEYREQRVPVAELGLLSVVGKVVWIGKDVK” is “failed”.
With “MMNEPQVSFITVCYNGFKDTCELIESLQTHVHSVSYEIIVVDNASREDEATKIKELYSDIVTLRSESNLGFSGGNNLGIRVAKGAYIFLINNDTYVESDGFHYLTERLESQKNIGAVSPKIRFAFPPQNIQFAGFTSLSAITIRNEMTGFGCPDDGTFDTPHTTPYLHGAALMVKREVIEKVGEMPEIFFLYYEEMDWCTQMTNAGYELWYEPRCTVFHKESQSTGQFSKLRTFYMTRNRLLYTRRNRKGAQRLLSILYQSTIAAGKNSLQFAVKGRFDLFAAVWKGVVRSFSVTSPIRLEHHHHHH”, the protein production entry was “failed”.
For “MGHHHHHHSHMDALSPSPAIPSNTDYPGPHSFDVSFQQSSTAKSATWTYSTELKKLYCQIAKTCPIQIKVMTPPPQGAVIRAMPVYKKAEHVTEVVKRCPNHELSREFNEGQIAPPSHLIRVEGNSHAQYVEDPITGRQSVLVPYEPPQVGTEFTTVLYNFMCNSSCVGGMNRRPILIIVTLETRDGQVLGRRCFEARICACPGRDRKADEDSIRKQQVSDSTKNGDGTKRPFRQNTHGIQM”, the protein production entry is “failed”.
